For orientation: Kd means the constant that tells how readily two partners part at equilibrium.

Holding throughout (settings): both partners purified
For assay [1], the target named is T1, PBX1_(1-430), wild-type recombinant (human, UniProt P40424 1-430).
T1 construct: also called wild-type PBX1; purified recombinant human PBX1; source: E. coli, purified
T1 sequence (looked up): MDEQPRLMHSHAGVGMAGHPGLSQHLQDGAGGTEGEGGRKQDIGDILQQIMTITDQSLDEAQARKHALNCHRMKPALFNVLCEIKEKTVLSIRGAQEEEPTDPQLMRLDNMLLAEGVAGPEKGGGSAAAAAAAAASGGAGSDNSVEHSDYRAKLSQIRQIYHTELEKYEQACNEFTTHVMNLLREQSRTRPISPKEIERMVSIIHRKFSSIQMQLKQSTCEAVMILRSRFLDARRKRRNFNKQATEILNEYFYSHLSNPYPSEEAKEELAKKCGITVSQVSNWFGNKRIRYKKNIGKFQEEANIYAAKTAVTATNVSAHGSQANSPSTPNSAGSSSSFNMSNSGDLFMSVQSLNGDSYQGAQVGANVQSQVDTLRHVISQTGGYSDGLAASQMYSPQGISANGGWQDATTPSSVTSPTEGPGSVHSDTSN
Description: ELISA; PBX1 wild-type coated at 0.1 µM in 100 mM Tris–HCl pH 7.5; GST-fused proteins at 0.23 nM to 0.5 µM, 1 h at 37 °C; anti-GST detection; GST signal subtracted; one-site binding model. On the technique in general: ELISA stands for enzyme-linked immunosorbent assay.

A further assay addresses T2, PREP1_(1-344) (UniProt P55347 1-344).
T2 construct: PREP1 (PKNOX1), residues 1-344, lacking the C-terminal region; Second cassette of the di-cistronic vector pGEX-6P-2RBS; also called PKNOX1; C-terminal truncated PREP1; source: E. coli, co-expressed with PBX1(1-308), purified as a complex (cation exchange, SEC on Superose 6)
T2 sequence (looked up): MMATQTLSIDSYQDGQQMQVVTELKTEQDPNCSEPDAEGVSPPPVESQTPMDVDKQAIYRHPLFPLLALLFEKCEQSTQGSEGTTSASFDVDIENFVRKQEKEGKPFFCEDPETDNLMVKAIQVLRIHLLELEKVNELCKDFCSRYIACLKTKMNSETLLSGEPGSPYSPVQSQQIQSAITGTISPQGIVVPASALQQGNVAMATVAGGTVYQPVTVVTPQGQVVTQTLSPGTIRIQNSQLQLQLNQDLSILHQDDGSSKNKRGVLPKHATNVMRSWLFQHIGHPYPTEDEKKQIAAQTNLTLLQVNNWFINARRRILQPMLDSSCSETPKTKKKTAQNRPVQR
Description: cross-linking; purified complex at 1 mg/ml in 50 mM borate-buffered saline, 1 mM BS^3, 1 h at room temperature; SDS-PAGE, in-gel Glu-C and trypsin digestion, nLC-ESI-MS/MS, pLink 2; two biological replicates.

Assay [2] deals with T3, full-length MEIS1 (MEIS1_(1-390)) in the purified MEIS1-PBX1 complex (UniProt O00470 1-390).
T3 construct: MEIS1, full length, residues 1-390; source: E. coli, purified as a complex with PBX1(1-308)
T3 sequence (looked up): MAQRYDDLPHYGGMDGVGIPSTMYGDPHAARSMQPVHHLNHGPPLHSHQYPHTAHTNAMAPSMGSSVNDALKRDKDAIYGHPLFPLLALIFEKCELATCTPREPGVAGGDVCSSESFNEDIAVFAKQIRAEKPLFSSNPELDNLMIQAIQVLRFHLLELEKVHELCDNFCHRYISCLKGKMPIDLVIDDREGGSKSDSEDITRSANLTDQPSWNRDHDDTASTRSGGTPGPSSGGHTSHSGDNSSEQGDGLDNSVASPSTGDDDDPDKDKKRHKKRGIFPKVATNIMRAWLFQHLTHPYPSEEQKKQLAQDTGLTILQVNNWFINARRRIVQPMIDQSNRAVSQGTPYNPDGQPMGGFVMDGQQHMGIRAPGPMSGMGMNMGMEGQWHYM
The description is as above.

B1: GST-fused wild-type MEIS1 (natural protein, UniProt O00470 1-390, looked up)
chain: MAQRYDDLPHYGGMDGVGIPSTMYGDPHAARSMQPVHHLNHGPPLHSHQYPHTAHTNAMAPSMGSSVNDALKRDKDAIYGHPLFPLLALIFEKCELATCTPREPGVAGGDVCSSESFNEDIAVFAKQIRAEKPLFSSNPELDNLMIQAIQVLRFHLLELEKVHELCDNFCHRYISCLKGKMPIDLVIDDREGGSKSDSEDITRSANLTDQPSWNRDHDDTASTRSGGTPGPSSGGHTSHSGDNSSEQGDGLDNSVASPSTGDDDDPDKDKKRHKKRGIFPKVATNIMRAWLFQHLTHPYPSEEQKKQLAQDTGLTILQVNNWFINARRRIVQPMIDQSNRAVSQGTPYNPDGQPMGGFVMDGQQHMGIRAPGPMSGMGMNMGMEGQWHYM
notes: MEIS1, full length, residues 1-390; Detected through GST in the ELISA; source: E. coli, purified
Turning to B1, the Kd in assay [1] is 80 ± 17 nM.

B2: PBX1_(1-308) (domain or fragment, human, UniProt P40424 1-308, looked up)
chain: MDEQPRLMHSHAGVGMAGHPGLSQHLQDGAGGTEGEGGRKQDIGDILQQIMTITDQSLDEAQARKHALNCHRMKPALFNVLCEIKEKTVLSIRGAQEEEPTDPQLMRLDNMLLAEGVAGPEKGGGSAAAAAAAAASGGAGSDNSVEHSDYRAKLSQIRQIYHTELEKYEQACNEFTTHVMNLLREQSRTRPISPKEIERMVSIIHRKFSSIQMQLKQSTCEAVMILRSRFLDARRKRRNFNKQATEILNEYFYSHLSNPYPSEEAKEELAKKCGITVSQVSNWFGNKRIRYKKNIGKFQEEANIYAAK
notes: PBX1, residues 1-308, lacking the C-terminal region; First cassette of the di-cistronic vector pGEX-6P-2RBS, with PREP1 in the second; also called C-terminal truncated PBX1; source: E. coli, purified as a complex with PREP1(1-344) or with MEIS1 (ion exchange, SEC on Superose 6)
For the molecule B2, the binding result (in the assay with PREP1_(1-344); in assay [2]) was “binds” each time.
